± gives the half width of the 95% confidence interval.
Experiments:
[1] = folding stability dG unfold (combined trypsin and chymotrypsin); higher = more stable
In short: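 Bayesian fitting of sequencing counts gave K50 for each design. Unfolding free energy followed by setting this against a sequence-predicted unfolded-state K50 and a shared folded-state K50, either per protease or with trypsin and chymotrypsin combined. The designs, under 80 residues and lacking cysteine, were digested in a PA-tagged cDNA display format at 11 threefold-diluted protease concentrations and without protease, and only those with AlphaFold2 dimer inter-PAE above 15 were kept.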

[2] = folding stability dG unfold from trypsin proteolysis; higher = more stable
Procedure: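 Folding stability of de novo designed mini-proteins (<80 aa, no Cys; designed by TrROS, TrMRF, ProteinMPNN and the joint model) was measured by cDNA display proteolysis with trypsin and chymotrypsin. Each protease was used at 11 concentrations in a threefold dilution series plus a no-protease condition. K50 was inferred by Bayesian fitting of sequencing counts, and dG unfold was derived against a sequence-predicted unfolded-state K50 (Tsuboyama et al. method). Sequences shown include variable-length N-terminal GS-type padding (SAGGSAGG...) inside a display construct carrying a PA tag. Rows were kept only if the AF2 dimer inter-PAE was >15, to exclude likely homo-oligomers.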

Sequence | folding stability dG unfold [1] | folding stability dG unfold [2]
SAGGSAGGSAGGSMKVEPLPHPDRPVTVETTPDSITVTDPANPPATTTFSSSSTVSVDSSAGGSAGGSAGGS [r4_321_JUSTAS] | -0.505 ± 0.44 kcal/mol | -0.122 ± 0.078 kcal/mol
SAGGSAGGSAGGSDELLKELAQENGMKVTAEPMPEEGHFNIEVQSPNGKPIEIEIPLDDSAGGSAGGSAGGS [r4_121_TrROS] | -0.0556 ± 0.26 kcal/mol | 0.128 ± 0.15 kcal/mol
SAGMTTETTEKTAPDGKTRTTTVTYPSEEKAADTTTVVVTETPVETDGSERILTTTTVYKNGVKVATTGSAG [r14_958_JUSTAS] | < -1 kcal/mol | -0.851 ± 0.56 kcal/mol
SASLENGGVKTVEDTEYDPATNTVTFKKVTTYYGDEVLSTSTATVPLPPKPLPPPPVVERDPTNPRYLESAG [r14_571_JUSTAS] | < -1 kcal/mol | -0.368 ± 0.91 kcal/mol
SAGGMLLYEKTVTSSPDDEALKLAKEIEEKLTPPDYITKIKVEVTPLPNGTYKVTIPIEILPPGYPKSAGGS [r16_128_JUSTAS] | -0.426 ± 0.19 kcal/mol | -0.0273 ± 0.076 kcal/mol
SAGGSAGGSAGGRTIHINGATPERIIKWLKEWPPDEPVEIHYHGPNNKHREIPIDELKKSAGGSAGGSAGGS [r10_732_TrROS] | -0.669 ± 0.38 kcal/mol | -0.0271 ± 0.1 kcal/mol
SAGGSAGGSAGGSNIILIPAKPGEEFKIKINGRPLKIQRDKDKPGYIMIEFPDGQWQPISAGGSAGGSAGGS [r4_488_TrROS] | -0.174 ± 0.24 kcal/mol | -0.041 ± 0.2 kcal/mol
SAGGSSMEELIKAVLEAAEAGKKAVNVKMPLPDGGEIEILDGGVIRIIPPDGVPLEEKIPVSELILSAGGSA [r2_97_JUSTAS] | < -1 kcal/mol | 0.442 ± 0.044 kcal/mol
SAGGSAGGSAGGSSTITIGDSEVSVTADPKAPVATASYPASGVTFTITRPDASVTITPTPSAGGSAGGSAGG [r7_156_JUSTAS] | < -1 kcal/mol | -0.783 ± 0.42 kcal/mol
SAGGSAGGSEGQPIIIKIKMENPGNGKKHKFDIMVPPGFKNAEEQANRLMNNFGPVKDVEIYPSAGGSAGGS [r12_942_TrROS] | < -1 kcal/mol | -0.846 ± 0.3 kcal/mol
SAGGSAGGMSTISVTVPPNVSVEEVKERLKKENPNSKYEILSVSKGPGTVKAKIAYDPLPEELLSAGGSAGG [r6_623_JUSTAS] | < -1 kcal/mol | -0.782 ± 0.22 kcal/mol
SKKWKVDLDIQEDPDNGTVIGMVRVESEDGEKRPPPEEIARELAEKLREKGYKVEAEPHPGWFMITVKPPSA [r9_510_TrROS] | 0.153 ± 0.48 kcal/mol | 0.371 ± 0.24 kcal/mol
SAGGSAGGSAGGDPLERKPVKVLVLHPDKPIELEVDVGLSPEEIARPFAEKGYEVRFEGSAGGSAGGSAGGS [r10_540_TrMRF] | -0.836 ± 0.39 kcal/mol | -1.17 ± 0.29 kcal/mol
SAGGSAGGSAGGSSLSTVAPSPSGRLYVELDIDEPVVSPTPIPTGTGPVSGIIVSPVLLSAGGSAGGSAGGS [r10_92_JUSTAS] | < -1 kcal/mol | -0.989 ± 0.31 kcal/mol
SAGGSAGGSAKITITAPPGETYRIKVKVKNENGEWKEVTRTIKVGEPLEDIEEVEIERIEPESAGGSAGGSA [r18_223_TrROS_Hall] | -0.146 ± 0.27 kcal/mol | 0.0462 ± 0.12 kcal/mol
SAGGSAIKITKVEYEPNPDGWREIHFKATPGDPDFLDEIAEALPPDNIEPTEVDEKGYYEIRIPRPSAGGSA [r15_386_TrROS] | -0.291 ± 0.17 kcal/mol | 0.0955 ± 0.058 kcal/mol
SGSMTPLTVEREVDITVVETRFLPNGGEVKKRRVTVTTTVTLPGGVPVSTQTTTIESPDLSEEEILERLSSA [r9_371_JUSTAS] | -0.752 ± 0.15 kcal/mol | 0.357 ± 0.051 kcal/mol
SAGGSAGSMSIEEVVEKAKEEGIEVEVTSLPESGLTVVTITKKLPNGEVVESIILEHPEGTTTVLSSAGGSA [r15_1051_JUSTAS] | 0.0134 ± 0.14 kcal/mol | 0.644 ± 0.057 kcal/mol

Sequence | folding stability dG unfold [1] | folding stability dG unfold [2]
SAGGSAGGSAMIVVTLDDPEEAREAVRARFGPEVEITPLETTTVGDRVFTKIAVRVPPELASAGGSAGGSAG [r3_87_JUSTAS] | -0.395 ± 0.24 kcal/mol | -0.351 ± 0.19 kcal/mol
SAGGSAGGKIEIFDQDQHDEMNQENGMPPKNYWMIRINGKPTAILPPDKPLTPNTIKNLIKEGLSAGGSAGG [r6_243_TrROS] | -0.799 ± 0.8 kcal/mol | 0.447 ± 0.15 kcal/mol
SAGGSAGGSAHTIEDPDNNKKIEVHPPPNGNYMVEIERPDNGEKKTIMMPPDDVEEALNQISAGGSAGGSAG [r3_162_TrROS] | < -1 kcal/mol | -0.139 ± 0.2 kcal/mol
SAGGGNMKTITVPASAVTSITRSPTNPNTLTITVSGSGATTTTTLPITPETKITEEGDTVTVTIPGLSAGGS [r16_22_JUSTAS] | -0.263 ± 0.096 kcal/mol | 0.312 ± 0.037 kcal/mol
DWKTRTVMFPVPPGDLEEAKDRAKELAKELPPGNKIEIEMPNPDGHYFMVTVTVDPNGEIDIDVSPGMRPIS [r1_350_TrROS] | -0.547 ± 0.38 kcal/mol | -0.418 ± 0.29 kcal/mol
SAMIKIEIVLPEEDLEKLLESEEVKELAKELEKKTGLKITSIKIEKKEVEVNGEKKKVVVITIEIEPEPSAG [r14_819_TrROS_Hall] | > 6 kcal/mol | 3.42 ± 0.24 kcal/mol
SAGGSAGGSAGTSTTVTEKPDPNSNRTYTTTTVERTTADGTTTTVTTTVYPDSTTSTTTASAGGSAGGSAGG [r11_987_JUSTAS] | 0.0978 ± 0.2 kcal/mol | 0.557 ± 0.094 kcal/mol
SAGGSAGGSAGGSMPKPKVIKVPVDPNVSKEEVAKEVLPKTGLNVESIEESEDVLYVLNSAGGSAGGSAGGS [r4_469_JUSTAS] | < -1 kcal/mol | -1.11 ± 0.38 kcal/mol
SAGGGVTREIPITIKTSEGEPEETITVPAKSREEVDPETGRPVSSVDPGSIEEIKAKLPSSVTSVVLSAGGS [r16_522_JUSTAS] | < -1 kcal/mol | -0.68 ± 0.077 kcal/mol
SAGGWIPIDEIKDLLDNGKPMPLEQIVKEIQKDFGYPVTIEEDDDSFWIHVENPNTGEPREEIEIDPSAGGS [r8_105_TrROS] | -0.392 ± 0.38 kcal/mol | 0.354 ± 0.11 kcal/mol
SAGGPMKVQVAVWRRDPDNGEPKEVEIPMTWDNIRELLDDIPPDGRYMVKIHSPGQPQTIPLEDLKELSAGG [r13_254_TrROS] | < -1 kcal/mol | 0.153 ± 0.42 kcal/mol
SMPKVVKTVKITKSEAKEFLEKLDIGPDKSVTILETDPNGKSSLHTIGPNKILSSEPVDTLPNTWTIEISSA [r9_849_JUSTAS] | -0.416 ± 0.35 kcal/mol | -0.0776 ± 0.13 kcal/mol
SAGGSAGGDGHPDILNAVFTRTETFYREGDDEPGGEGTREILVVVTGDNPENPELALKEAEEAASAGGSAGG [r6_928_TrMRF] | 0.0849 ± 0.18 kcal/mol | 0.601 ± 0.055 kcal/mol
SAGGSAPNEEITIPIRIRVENPEDGKPIHEIPIPIKVPKGQTQDQILDQAKNWMEEHGMKIKEIEISAGGSA [r15_195_TrROS] | < -1 kcal/mol | -1.32 ± 0.86 kcal/mol
SAGGSAGGSAGGMYVIKITMGDRPRSIMVPPDNPEEIKNQLRDLGYNIKEISVERFPPGSAGGSAGGSAGGS [r10_405_TrROS] | -0.787 ± 0.56 kcal/mol | -0.749 ± 0.61 kcal/mol
SAGGMTSYSVTVELPETGKKITITVPNNDPNVTPEKAAAEAEKRIKAEKEKIKKELEKKPKKPSSKLKSAGG [r13_126_JUSTAS] | < -1 kcal/mol | -0.907 ± 0.93 kcal/mol
SAGGSAGGSAGPMIKIGSTTRPFTPPLGGRLEYAPIDVDQSEEVAKEVAEELKPKGVIVNLSAGGSAGGSAG [r3_157_JUSTAS] | < -1 kcal/mol | -0.774 ± 0.35 kcal/mol
SAGGSAGGSAGPKPIEFEDPDNGRKIEYWPEENQISIENPGDGKEKEYPMDSPEELKEWMSAGGSAGGSAGG [r11_936_TrROS] | < -1 kcal/mol | 0.117 ± 0.17 kcal/mol

From the supplement of paper PMC12764529
